Data as given in publication PMC7232456, “Loxoscelism: Advances and Challenges in the Design of Antibody Fragments with Therapeutic Potential” (Toxins, 2020).

B1: scFv15hLi7m (scFv, V domains shown)
VH: QVQLQQSGAEVKKPGASVKVSCKASGYAFSSSWMNWVRQAPGQGLEWMGRIYPGDGDTNYNQKFQGRVTMTRDTSTSTVYMELSSLRSEDTAVYFCARWTYGYSKYYYFDDWGQGTLVTVSS
VL: DIQMTQSPSSLSASVGDRVTITCRASQSLLWNVNENNYLSWYQQKQGKAPKLLIYGASILESGVPSRFSGSGSGTDFTLTISSLQPEDFATYYCQHNHGSFLPYTFGQGTKLEIK
notes: also called second generation of the humanized scFv; monomeric scFv
B2: scFv5hLi7m (scFv, V domains shown)
VH: QVQLQQSGAEVKKPGASVKVSCKASGYAFSSSWMNWVRQAPGQGLEWMGRIYPGDGDTNYNQKFQGRVTMTRDTSTSTVYMELSSLRSEDTAVYFCARWTYGYSKYYYFDDWGQGTLVTVSS
VL: DIQMTQSPSSLSASVGDRVTITCRASQSLLWNVNENNYLSWYQQKQGKAPKLLIYGASILESGVPSRFSGSGSGTDFTLTISSLQPEDFATYYCQHNHGSFLPYTFGQGTKLEIK
notes: also called (scFv5hLi7m)2; dimeric scFv5hLi7m
B3: scFv15hLi7 (scFv, V domains shown)
VH: QVQLQQSGAEVKKPGASVKVSCKASGYAFSSSWMNWVRQAPGQGLEWMGRIYPGDGDTNYNQKFQGRVTMTRDTSTSTVYMELSSLRSEDTAVYYCARWTYGYSKYYYFDDWGQGTLVTVSS
VL: DIQMTQSPSSLSASVGDRVTITCRASQSLLWNVNENNYLSWYQQKPGKAPKLLIYGASILESGVPSRFSGSGSGTDFTLTISSLQPEDFATYYCQHNHGSFLPYTFGQGTKLEIK
notes: also called humanized scFv; first generation of the humanized scFv

Experiments:
[1] = target: T1, recombinant SMase D LiD1 from L. intermedia (Loxosceles intermedia, UniProt P0CE81); test: ELISA; conditions: both partners purified
T1 construct: also called rLiD1; recombinant sphingomyelinase D

[2] = target: T1, recombinant SMase D LiD1 from L. …; test: SPR; conditions: both partners purified

T1 sequence (P0CE81 27-306): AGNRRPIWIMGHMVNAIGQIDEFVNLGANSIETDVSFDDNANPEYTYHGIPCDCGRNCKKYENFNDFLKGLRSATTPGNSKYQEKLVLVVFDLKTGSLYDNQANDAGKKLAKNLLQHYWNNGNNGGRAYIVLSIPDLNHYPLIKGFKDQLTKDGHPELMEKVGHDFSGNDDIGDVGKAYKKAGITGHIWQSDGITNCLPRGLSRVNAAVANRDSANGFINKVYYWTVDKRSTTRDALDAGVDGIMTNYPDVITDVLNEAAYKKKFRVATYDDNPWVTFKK

Row | Binder | binding result [1] | Kd [2] [nM] | koff [2] [s⁻¹] | kon [2] [M⁻¹ s⁻¹]
1 | B1 | binds |  |  | 
2 | B2 | binds |  |  | 
3 | B3 |  | 56.6 | 0.0103 | 182000
